Measurements: PMC7464562

Target: SARS-CoV-2 S2 fragment (fusion fragment; postfusion S2 trimer, peak 2) (SARS-CoV-2)
Assay: cryo-EM structure

SARS-CoV-2 S2 fragment (fusion fragment; postfusion S2 trimer, peak 2) (domain or fragment)
stoichiometry N: 3
